Measured values from patent publication US20170028070A1.

Tested on: HER2 epitope peptide
Conditions: 5'-H2N-(CH2)6; doxorubicin intercalated, Dox:aptamer 10:1; apparent Kd from doxorubicin fluorescence release upon epitope binding; Dox molar ratio 10

AACCGCCCAAATCCCTAAGAGTCTGCACTTGTCATTTTGTATATGTATTTGGTTTTTGGCTCTCACAGACACACTACACACGCACA [Dox-loaded anti-HER2 aptamer]
Kd: 50 nM
